Results on 3 molecules are retold here after patent publication US20140031283A1, “ANTICANCER FUSION PROTEIN” (ADAMED SP. Z O.O., priority 2011, published 2014).

Where “and” joins values, the source holds several entries; their conditions need not be identical. Equal values may be shown once. A value given as a limit tells only on which side of the number the result lay.

The subject of test [1] is A549. Nature of the test: MTT cytotoxicity test, A549 (human lung cancer). The test is classed as cell-based. From the text:
(§1) MTT assay is a colorimetric assay used to measure proliferation, viability and cytotoxicity of cells. It consists in decomposition of a yellow tetrazolium salt MTT (4,5-dimethyl-2-thiazolyl)-2,5-diphenyltetrazolium bromide) to the water-insoluble purple dye formazan by mitochondrial enzyme succinate-tetrazolium reductase 1. MTT reduction occurs only in living cells. Data analysis consists in determining IC50 concentration of the protein (in ng/ml), at which the 50% reduction in the number of cells occurs in the population treated compared to control cells. Results were analyzed using GraphPad Prism 5.0 software. The test was performed according to the literature descriptions (Cells, J E, (1998). Cell Biology, a Laboratory Handbook, second edition, Academic Press, San Diego; Yang, Y., Koh, L W, Tsai, J H., (2004); Involvement of viral and chemical factors with oral cancer in Taiwan, Jpn J Clin Oncol, 34 (4), 176-183). Cell culture medium was diluted to a defined density (10^4-10^5 cells per 100 μl). Then 100 μl of appropriately diluted cell suspension was applied to a 96-well plate in triplicates. Thus prepared cells were incubated for 24 h at 37° C. in 5% or 10% CO2, depending on the medium used, and then to the cells (in 100 μl of medium) further 100 μl of the medium containing various concentrations of tested proteins were added. In the case of combination hTRAIL114-281 and p21WAF effector protein, 100 μl of the medium containing mixture of hTRAIL114-281 and p21WAF effector protein in molar ratio 1:1 was added. After incubation of the cells with tested proteins over the period of next 72 hours, which is equivalent to 3-4 times of cell division, the medium with the test protein was added with […] of MTT working solution [5 mg/ml], and incubation was continued for 3 h at 37° C. in 5% CO2. Then the medium with MTT solution was removed, and formazan crystals were dissolved by adding 100 μl of DMSO. After stirring, the absorbance was measured at 570 nm (reference filter 690 nm).
(§2) The results of in vitro cytotoxicity tests are summarized as IC50 values (ng/ml), which corresponds to the protein concentration at which the cytotoxic effect of fusion proteins is observed at the level of 50% with respect to control cells treated only with solvent. Each experiment represents the average value of at least two independent experiments performed in triplicates. As a criterion of lack of activity of protein preparations the IC50 limit of 2000 ng/ml was adopted.
On the technique in general: Tetrazolium assays rely on reduction of a dye to a coloured formazan, in cell work by metabolically active cells.

The test system of test [2] is MES-SA. Nature of the test: MTT cytotoxicity test, MES-SA (human uterine sarcoma). The test is classed as cell-based. As to conditions: continuous incubation over 72 h, test MTT.
Excerpt: as §1, §2

In test [3] the test system is MES-SA/Dx5. Nature of the test: MTT cytotoxicity test, MES-SA/Dx5 (multidrug-resistant human uterine sarcoma). The test is classed as cell-based. As to conditions: for MES-SA/Dx5 mean (IC50): Table 4, mean/SD part.
Excerpt: as §1, §2
Cells selected for this test included tumor cell lines that are naturally resistant to TRAIL protein (the criterion of natural resistance to TRAIL: IC50 for TRAIL protein >2000), as well as tumor cell lines sensitive to TRAIL protein and resistant to doxorubicin line MES-SA/DX5 as a cancer line resistant to conventional anticancer medicaments.

Test [4] concerns SK-MES-1. In words: MTT cytotoxicity test, SK-MES-1 (human lung cancer). To be noted: for SK-MES-1 mean (IC50): Table 4, mean/SD part. The test is classed as cell-based.
Excerpt: as §1, §2

Test [5] deals with MCF10A. Nature of the test: MTT cytotoxicity test, MCF10A (mammary epithelial cells). It counts as cell-based. To be noted: continuous incubation over 72 h, test MTT.
Excerpt: as §1, §2

Test [6] deals with TRAIL sensitive cell lines. Nature of the test: in vitro cytotoxicity tests, TRAIL sensitive cell lines. It counts as cell-based. To be noted: continuous incubation over 72 h, test MTT; versus rhTRAIL 95-281 (cell line not given).
Excerpt: as §1, with “nm). […]” for “nm).”

For test [7], the system named is HCT-116.
Description: Data analysis consists in determining IC50 concentration of the protein (in ng/ml), at which the 50% reduction in the number of cells occurs in the population treated compared to control cells. Results were analyzed using GraphPad Prism 5.0 software. […] Cell culture medium was diluted to a defined density (10^4-10^5 cells per 100 μl). Then 100 μl of appropriately diluted cell suspension was applied to a 96-well plate in triplicates. Thus prepared cells were incubated for 24 h at 37° C. in 5% or 10% CO2, depending on the medium used, and then to the cells (in 100 μl of medium) further 100 μl of the medium containing various concentrations of tested proteins were added. […] After incubation of the cells with tested proteins over the period of next 72 hours, which is equivalent to 3-4 times of cell division, the medium with the test protein was added with 20 ml of MTT working solution [5 mg/ml], and incubation was continued for 3 h at 37° C. in 5% CO2. Then the medium with MTT solution was removed, and formazan crystals were dissolved by adding 100 μl of DMSO. After stirring, the absorbance was measured at 570 nm (reference filter 690 nm).
For test [8], the system named is HT-29. Nature of the test: MTT cytotoxicity test, HT-29 (human colorectal cancer). The test is classed as cell-based. To be noted: Table 4, mean/SD part; listed as Ex. 17^a. The text has this:
(§3) MTT assay is a colorimetric assay used to measure proliferation, viability and cytotoxicity of cells. It consists in decomposition of a yellow tetrazolium salt MTT (4,5-dimethyl-2-thiazolyl)-2,5-diphenyltetrazolium bromide) to the water-insoluble purple dye formazan by mitochondrial enzyme succinate-tetrazolium reductase 1. MTT reduction occurs only in living cells. Data analysis consists in determining IC50 concentration of the protein (in ng/ml), at which the 50% reduction in the number of cells occurs in the population treated compared to control cells. Results were analyzed using GraphPad Prism 5.0 software. The test was performed according to the literature descriptions (Cells, J E, (1998). Cell Biology, a Laboratory Handbook, second edition, Academic Press, San Diego; Yang, Y., Koh, L W, Tsai, J H., (2004); Involvement of viral and chemical factors with oral cancer in Taiwan, Jpn J Clin Oncol, 34 (4), 176-183). Cell culture medium was diluted to a defined density (10^4-10^5 cells per 100 μl). Then 100 μl of appropriately diluted cell suspension was applied to a 96-well plate in triplicates. […] After stirring, the absorbance was measured at 570 nm (reference filter 690 nm). […]

For test [9], the system named is UM-UC-3. Nature of the test: MTT cytotoxicity test, UM-UC-3 (human bladder cancer). As to conditions: Table 4, mean/SD part. The test is classed as cell-based.
Excerpt: as §3

Test [10] has as its system NIH: OVCAR-3. Nature of the test: MTT cytotoxicity test, NIH: OVCAR-3 (human ovarian cancer). The test is classed as cell-based. As to conditions: Table 4, mean/SD part.
Excerpt: as §3

The test system of test [11] is human colon cancer HCT116. In words: HCT116 colon cancer xenograft in Crl:CD1-Foxn1^nu 1 mice. The test is classed as in vivo. As to conditions: HCT116, Crl:CD1-Foxn1^nu 1 mice, 10 mg/kg i.v., 10 daily applications with a two-day break after the first 5, 27th day. The procedure:
(§4) Antitumor activity of protein preparations was tested in a mouse model of human colon cancer HCT116, human colon cancer Colo205, human colon cancer model SW620, human liver cancer model HepG2, and human lung cancer models NCI-H460 and NCI-H460-Luc2.
(§5) The HCT116 (in mice Crl:CD1-Foxn1^nu 1), Colo205, NCI-H460, NCI-H460-Luc2 cells were maintained in RPMI 1640 medium (Hyclone, Logan, Utah, USA) mixed in the ratio of 1:1 with Opti-MEM (Invitrogen, Cat.22600-134) supplemented with 10% fetal calf serum and 2 mM glutamine. On the day of mice grafting, the cells were detached from the support by washing the cells with trypsin (Invitrogen), then the cells were centrifuged at 1300 rpm, 4° C., 8 min., suspended in HBSS buffer (Hanks medium), counted and diluted to the concentration of 25×10^6 cells/ml.
(§6) Examination of antitumor activity of proteins of the invention was conducted on 7-9 week-old CD-nude (Crl:CD1-Foxn1^nu 1) or 4-6 week-old Crl:SHO-Prkdc^scidHr^hr mice obtained from Charles River Germany. Mice were kept under specific pathogen-free conditions with free access to food and demineralised water (ad libitum). All experiments on animals were carried in accordance with the guidelines: “Interdisciplinary Principles and Guidelines for the Use of Animals in Research. […]

Test [12] concerns human lung cancer NCI-H460-Luc2. In words: NCI-H460-Luc2 lung cancer xenograft in Crl:CD1-Foxn1nu 1 mice. It counts as in vivo. To be noted: NCI-H460-Luc2, Crl:CD1-Foxn1nu 1 mice, 20 mg/kg i.v. six times every second day, 30th day. The method, then:
as §4, §5, §6

For test [13], the system named is NCI-H460. As to conditions: Table 4, mean/SD part.
[14] abbreviates: continuous incubation over 72 h, test MTT.

B1: Ex. 14: fusion protein: 13-amino acid fragment of MEK-1 protein with antennapedia sequence at C-terminus of TRAIL121-281, MMP and uPA sites (protein)
chain: RVAAHITGTRGRSNTLSSPNSKNEKALGRKINSWESSRSGHSFLSNLHLRNGELVIHEKGFYYIYSQTYFRFQEEIKENTKNDKQMVQYIYKYTSYPDPILLMKSARNSCWSKDAEYGLYSIYQGGIFELKENDRIFVSVTNEHLIDMDHEASFFGAFLVGGSPLGLAGRVVRDRQIKIWFQNRRMKWKKGMPKKKPTPIQLN
modifications: synthesized, a fusion protein comprising: a fragment of TRAIL protein, a fragment of MEK-1 protein - an inhibitor of ERK activation, cleavage sites recognized by uPA and MMP, an antennapedia transporting domain and a glycine- cysteine linker.
As to B1, the “A549 IC50” value in test [1] (setting [14]) came to 1.767 µg/mL. Also, the “MES-SA IC50” value in test [2] was 0.2312 µg/mL. In addition, the “MES-SA/Dx5 IC50” value in test [3] (setting [14]) is 0.01373 µg/mL. Also, in test [4] (setting [14]), the “SK-MES-1 IC50” value stood at 0.02848 µg/mL. Also, the “MCF10A IC50” value in [5] is more than 2 µg/mL. Further, the half-maximal inhibitory concentration (IC50) in [6] turned out to be 0.049 µg/mL. Also, the “HCT116 IC50” value in test [7] (setting [14]) was found to be 0.1235 µg/mL.

B2: Ex. 17: fusion protein: 13-amino acid fragment of tubulin with 6 arginine residues at N-terminus of TRAIL121-281, uPA and MMP sites (protein)
chain: FRRKAFLHWYTGRRRRRRRRVVRPLGLAGRVAAHITGTRGRSNTLSSPNSKNEKALGRKINSWESSRSGHSFLSNLHLRNGELVIHEKGFYYIYSQTYFRFQEEIKENTKNDKQMVQYIYKYTSYPDPILLMKSARNSCWSKDAEYGLYSIYQGGIFELKENDRIFVSVTNEHLIDMDHEASFFGAFLVG
modifications: synthesized, a fusion protein comprising: a fragment of TRAIL protein, a fragment of tubulin peptide, cleavage sites recognized by urokinase uPA and metalloprotease MMP and an arginine transporting domain.
notes: fusion protein: 13-amino acid fragment of tubulin with 6 arginine residues at N-terminus of TRAIL121-281, uPA and MMP sites
In the case of B2, the “HT 29 mean (IC50)” value in test [8] was 6.808 µg/mL and 7.818 µg/mL. In addition, in [1] (Table 4, mean/SD part), the “A549 mean (IC50)” value came out at 2.887 µg/mL. For the same molecule, in [3] (listed as Ex. 17^a), the “MES-SA/Dx5 mean (IC50)” value is 0.07596 µg/mL and 0.04426 µg/mL. Moreover, in [4], the “SK-MES-1 mean (IC50)” value came to 0.08119 µg/mL.

B3: Ex. 2^a: fusion protein: 8-amino acid fragment of human fetoprotein (SEQ. No. 28) at N-terminus of TRAIL114-281, uPA cleavage site (protein)
chain: EMTPVNPGRVVRERGPQRVAAHITGTRGRSNTLSSPNSKNEKALGRKINSWESSRSGHSFLSNLHLRNGELVIHEKGFYYIYSQTYFRFQEEIKENTKNDKQMVQYIYKYTSYPDPILLMKSARNSCWSKDAEYGLYSIYQGGIFELKENDRIFVSVTNEHLIDMDHEASFFGAFLVG
modifications: synthesized, a fusion protein comprising: a fragment of TRAIL protein, a fragment of human fetoprotein and a cleavage site recognized by urokinase uPA.
As for B3, in test [9], the “UM-UC-3 mean (IC50)” value worked out at 0.03506 µg/mL. Besides, the “OVCAR-3 mean (IC50)” value in test [10] came to 0.0261 µg/mL. Moreover, the “MES-SA/Dx5 mean (IC50)” value in test [3] came to 0.01896 µg/mL. Besides, the “SK-MES-1 mean (IC50)” value in test [4] was 0.01888 µg/mL. Also, the results for the “tumor growth inhibition (TGI) relative to the control” value in [11] and in test [12] were 71.2% and 81.3%, respectively. In test [13], the “NCI-H460 mean (IC50)” value came out at 4.246 µg/mL. In addition, in [7] (Table 4, mean/SD part), the “HCT116 mean (IC50)” value is 0.06 µg/mL and 0.06087 µg/mL.

The IC50 is the point on the concentration scale where inhibition reaches its midpoint.
